Data reported in paper PMC7900760, “Perilipin 5 S155 phosphorylation by PKA is required for the control of hepatic lipid metabolism and glycemic control” (Journal of Lipid Research, 2021).

T1: ATGL-CFP (adipose triglyceride lipase fused to CFP) (UniProt Q8BJ56 1-486)
T1 construct: Adipose triglyceride lipase (ATGL); source: HeLa cells, transiently transfected (Lipofectamine 3000), in live cells
T1 sequence (looked up): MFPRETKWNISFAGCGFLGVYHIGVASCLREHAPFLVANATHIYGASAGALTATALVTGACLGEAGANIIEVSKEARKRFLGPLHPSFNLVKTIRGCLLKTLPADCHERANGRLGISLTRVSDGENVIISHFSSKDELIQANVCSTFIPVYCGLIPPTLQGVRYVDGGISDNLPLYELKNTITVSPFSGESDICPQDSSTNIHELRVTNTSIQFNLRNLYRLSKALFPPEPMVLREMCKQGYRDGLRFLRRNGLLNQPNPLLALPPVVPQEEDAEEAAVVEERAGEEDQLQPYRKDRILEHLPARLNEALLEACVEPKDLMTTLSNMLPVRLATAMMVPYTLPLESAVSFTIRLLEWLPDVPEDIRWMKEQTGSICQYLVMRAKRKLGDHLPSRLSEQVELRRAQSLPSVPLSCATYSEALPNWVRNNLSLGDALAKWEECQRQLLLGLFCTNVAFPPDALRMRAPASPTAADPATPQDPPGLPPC

T2: ABHD5-CFP (α-β hydrolase domain-containing 5 fused to CFP) (UniProt Q9DBL9 1-351)
T2 construct: α-β hydrolase domain-containing 5 (ABHD5, also known as CGI-58); also called CGI-58; source: HeLa cells, transiently transfected (Lipofectamine 3000), in live cells
T2 sequence (looked up): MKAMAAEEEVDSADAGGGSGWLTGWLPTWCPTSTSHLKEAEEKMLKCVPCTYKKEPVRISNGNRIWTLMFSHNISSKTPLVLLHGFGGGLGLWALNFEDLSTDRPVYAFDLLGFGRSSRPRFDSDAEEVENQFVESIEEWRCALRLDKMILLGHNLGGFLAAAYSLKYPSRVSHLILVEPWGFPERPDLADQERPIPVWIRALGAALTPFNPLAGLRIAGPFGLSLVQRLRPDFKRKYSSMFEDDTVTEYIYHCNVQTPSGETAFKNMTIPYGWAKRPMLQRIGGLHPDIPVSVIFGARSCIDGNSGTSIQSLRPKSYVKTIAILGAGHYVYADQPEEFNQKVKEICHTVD


Experiments:
[1] = target: T1, ATGL-CFP (adipose triglyceride lipase …); experiment: FRET or BRET; phasor-based FLIM-FRET in live HeLa cells transiently co-transfected with a CFP donor (ATGL-CFP or ABHD5-CFP) and a YFP acceptor (PLIN5-YFP or PLIN5 S155A-YFP); 37°C, 5% CO2; before and after 20 μM forskolin; settings: partners not purified
[2] = target: T2, ABHD5-CFP (α-β hydrolase …); experiment: as above; settings: partners not purified

| Binder | FRET efficiency [1] | FRET efficiency [2] |
| --- | --- | --- |
| PLIN5-YFP (perilipin 5 fused to YFP) (natural protein, mouse, UniProt Q8BVZ1 1-463, looked up, Perilipin 5 (PLIN5), murine; also called wild-type PLIN5; source: HeLa cells, transiently transfected (Lipofectamine 3000), in live cells) MDQRGEDTTLAPHSRMSGDQTAQDPGSSLGELDQQNVVNRVVALPLVKATCTAVSSAYNSAKDRHPLLGSACRLAEHCVCSVTTCALDHAQPLLEHLQPQLATVNDLACRGLDKLEEKLPFLQQPSDMVVTSAKDTVAKSVTGMVDLAQRGRRWSGELRRSMSQAMDMVLGKSEKLVDRFLPMTEAELAVLAAEAEGPEVGTVEEQRQQQGYFVRLGSLSARLRHLAYEHSLGKLRQSKHRTQEMLAQLQETLELIQHMQRGASPSPTFHPPKTQELWGSWSPCLENGRSHSEVELETLALSRSLTLELQNAVDALAGCVRGLPPSAQAKVAEVQRSVDALQATFADAHCLGDVAPTALAEGRGSVARAHACVDEFLDLVLRAMPLPWLVGPFAPILVEQSEPLINLATCVDEVVGDPDPRWAHMDWPAQKRAWEAESADPGGQEAEPPRGQGKHTMMPELDF | 20% | 25% |
| PLIN5 S155A-YFP (natural protein, mouse, UniProt Q8BVZ1 1-463, looked up, Perilipin 5 (PLIN5), murine, with the phosphorylation-defective S155A mutation; also called phospho-mutant S155A; source: HeLa cells, transiently transfected (Lipofectamine 3000), in live cells) MDQRGEDTTLAPHSRMSGDQTAQDPGSSLGELDQQNVVNRVVALPLVKATCTAVSSAYNSAKDRHPLLGSACRLAEHCVCSVTTCALDHAQPLLEHLQPQLATVNDLACRGLDKLEEKLPFLQQPSDMVVTSAKDTVAKSVTGMVDLAQRGRRWAGELRRSMSQAMDMVLGKSEKLVDRFLPMTEAELAVLAAEAEGPEVGTVEEQRQQQGYFVRLGSLSARLRHLAYEHSLGKLRQSKHRTQEMLAQLQETLELIQHMQRGASPSPTFHPPKTQELWGSWSPCLENGRSHSEVELETLALSRSLTLELQNAVDALAGCVRGLPPSAQAKVAEVQRSVDALQATFADAHCLGDVAPTALAEGRGSVARAHACVDEFLDLVLRAMPLPWLVGPFAPILVEQSEPLINLATCVDEVVGDPDPRWAHMDWPAQKRAWEAESADPGGQEAEPPRGQGKHTMMPELDF | 20% | 25% |
